{
  "source": "patent US20230279079A1",
  "about": "(published 2023)",
  "binders": {"B1": {"name": "FI-3A (antibody, V domains shown)", "VH": "EVQLLESGGGLIQPGGSLRLSCAASGFTVSSNYMSWVRQAPGKGLEWVSVIYSGGSTYYADSVKGRFTISRDNSKNTLYLQMNSLRAEDTAVYYCARDHVRPGMNIWGQGTMVTVSS", "VL": "not shown"}},
  "molecular_target": "RBD-VLP (SARS-CoV-2, UniProt P0DTC2 340-538)",
  "data": [
    {"binder": "B1", "values": [
      {"measurement": "IC50", "result": 3, "unit": "nM"}
    ]}
  ]
}
